*: point of attachment. P‑1 benzyl acid (p-CN) = benzyl acid lacking the N-terminal amino group (p-cyano substituted), replacing Tyr at P-1, N#Cc1ccc(CCC(=O)*)cc1; P‑1 benzyl acid (p-SO2NH2) = p-sulfonamide (SO2NH2) benzyl acid lacking the N-terminal amino group, replacing Tyr P-1; P‑1 benzyl acid (m-CH3) = m-methyl benzyl acid lacking the N-terminal amino group, replacing Tyr P-1; P‑1 benzyl acid (m-Cl) = m-chloro benzyl acid lacking the N-terminal amino group, replacing Tyr P-1; P‑1 benzyl acid (m-F) = m-fluoro benzyl acid lacking the N-terminal amino group, replacing Tyr P-1; P‑1 benzyl acid (p-NH2) = benzyl acid at P-1 lacking the N-terminal amino group, replacing Tyr P-1; Propanoyl(3-(4-F-phenyl)) = O=C(CCc1ccc(F)cc1)*
Columns and labels:
[1] = mice; ref Singla et al., 2002; Zhang et al., 2013; cited from earlier work
[2] = cited from earlier work
[3] = Plasma stability by LC-MS; conditions: rat plasma, 37 °C; 123B7 versus YSA, 123B4 versus YSA-9mer
[4] = molecular target: EphA2-LBD (residues 27-200) (Homo sapiens, UniProt P29317); assay: 1D 1H-aliph NMR binding assay, rank ordering; conditions: 10 μM EphA2-LBD, 100 μM compound; arbitrary scale 1 to 5
EphA2-LBD (residues 27-200), sequence (P29317 27-200): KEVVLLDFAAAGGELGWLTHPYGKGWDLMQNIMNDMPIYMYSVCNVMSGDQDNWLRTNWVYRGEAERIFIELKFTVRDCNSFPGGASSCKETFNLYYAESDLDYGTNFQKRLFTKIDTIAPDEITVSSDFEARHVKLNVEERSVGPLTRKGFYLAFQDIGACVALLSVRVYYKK

[5] = molecular target: EphA2 ligand binding domain (residues 27-200) (UniProt P29317 27-200); assay: NMR titration
EphA2 ligand binding domain (residues 27-200), sequence (P29317 27-200): as above

Molecule | Rank ordering by NMR [5] | also measured
CC(=O)O[C@H]1C(=O)[C@@]2(C)[C@H]([C@H](OC(=O)c3ccccc3)[C@]3(O)C[C@H](OC(=O)[C@H](O)[C@@H](NC(=O)c4ccccc4)c4ccccc4)C(C)=C1C3(C)C)[C@]1(OC(C)=O)CO[C@@H]1C[C@@H]2O [PTX, paclitaxel] | – | single dose MTD [1]: < 30 mg/kg
ySAYPDSVP-Nle-Hsr-S [dYNH] | – | half-life in plasma [2]: > 1 h
CSCC[C@H](NC(=O)[C@H](CCSC)NC(=O)[C@@H]1CCCN1C(=O)[C@@H](NC(=O)[C@H](CO)NC(=O)[C@H](CC(=O)O)NC(=O)[C@@H]1CCCN1C(=O)[C@H](Cc1ccc(O)cc1)NC(=O)[C@H](C)NC(=O)[C@H](CO)NC(=O)COc1ccc(F)c(Cl)c1)C(C)C)C(=O)N[C@@H](CO)C(N)=O [123B7] | – | plasma stability versus corresponding non-optimized peptide [3]: significantly improved peptide stability
120H5 ({P‑1 benzyl acid (p-NH2)}-SAYPDSVP-NH2) | – | Rank ordering by NMR [4]: 1
{P‑1 benzyl acid (m-F)}-SAYPDSVP-NH2 [120G7] | 2 rank, arbitrary scale 1-5 | –
{P‑1 benzyl acid (m-Cl)}-SAYPDSVP-NH2 [120G8] | 4 rank, arbitrary scale 1-5 | –
{P‑1 benzyl acid (p-CN)}-SAYPDSVP-NH2 [120A5] | 3 rank, arbitrary scale 1-5 | –
{P‑1 benzyl acid (m-CH3)}-SAYPDSVP-NH2 [123A12] | 4 rank, arbitrary scale 1-5 | –
{P‑1 benzyl acid (p-SO2NH2)}-SAYPDSVP-NH2 [120H8] | 3 rank, arbitrary scale 1-5 | –
{P‑1 benzyl acid (p-NH2)}-SAYPDSVP-NH2 [120H5] | 1 rank, arbitrary scale 1-5 | –
{Propanoyl(3-(4-F-phenyl))}-SAYPDSVP-NH2 [120F11] | 2 rank, arbitrary scale 1-5 | –

Reference: article PMC4515144 (Chemistry & biology, 2015)
